Legend:
Lenti-X 293T cells = experiment: YFP fluorescence quenching anion reporter plate reader assay of engineered receptors stimulated with acetylcholine or a non-native ligand; assay type: cell-based
How it was run: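 YFP quench was followed for about 1 min 43 s after ligand delivered in iodide-based ECS, pH 7.2. Values are end-of-read fluorescence (last 10 s) divided by the pre-ligand baseline (15 s). Cells were LX293T, transfected with receptor DNA a day before the assay.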

rat DRG neurons = experiment: Rheobase shift and evoked action potentials in rat DRG neurons (current clamp); assay type: cell-based
Experimental: Using whole cell manual patch clamp electrophysiology in HEK293 cells, rat DRG neurons and rat hippocampal neurons, the EC50 of the various engineered receptors disclosed herein to Ach and non-native ligands was measured using the Hill equation with peak current measurements from escalating doses of ligand. The rheobase shift was also measured in rat DRG neurons, which reflects the efficacy of the receptors. To calculate the rheobase, first, the amount of current that can produce an action potential was determined. Then the ligand was added, followed by a step wise increase in the current injected up to 700 pA.
For manual patch clamp experiments, Cells plated on coverslips were visualized at 10× and 40× on an inverted fluorescence microscope (Olympus). Recordings were made with an Axopatch 200B amplifier and Digidata 1550B (Molecular Devices) at RT using 3-6 MOhm glass patch electrodes (Sutter, BF150-86-10). Unless otherwise stated, recordings were made in extracellular solution (ECS) containing: 140 mM sodium chloride, 4 mM potassium chloride, 1 mM magnesium chloride, 2 mM calcium chloride, 10 mM HEPES, and 10 mM D-(+)-glucose (pH=7.3 with sodium hydroxide, osmolarity=305−315 mOsm). An 8-line reservoir (AutoMate Scientific) in combination with an 8-channel zero-dead-volume perfusion pencil (AutoMate Scientific) was used for perfusion. Data was acquired using pClamp software (Molecular Devices). Traces were either analyzed in Clampfit (Molecular Devices) or using custom Python code. Plotting and statistics were performed in GraphPad Prism.
DRG rheobase experiments were performed in current clamp mode using a potassium-based internal solution containing: 100 mM potassium D-gluconate, 28 mM potassium chloride, 1 mM magnesium chloride hexahydrate, 5 mM magnesium ATP, 10 mM HEPES, and 0.5 mM EGTA (pH=7.2 with potassium hydroxide, osmolarity=290-295 mOsm, calculated liquid junction potential=−13.5 mV). To measure DRG input resistance and rheobase, 500 ms current steps (−200 pA to 700 pA) were applied the membrane in the presence and absence of a compound. No holding current was applied to the membrane for cells included in the final datasets. Data were acquired at 10 kHz, with Bessel filter at 2 kHz and series resistance compensation at 100%. Rheobase was defined as the smallest depolarizing current injection required to cause an action potential to fire in the cell. In a subset of cells, the rheobase was ambiguous, since the action potential appeared to be graded in amplitude. In these cases, a […] of the trace clarified the rheobase. Input resistance was measured from the negative current injections, calculated as the difference in membrane potential at steady state divided by the current injection amplitude and then averaged across the four negative current steps for each recording. Resting membrane potential was measured from the first 100 ms of each sweep, averaged for each recording, and corrected for liquid junction potential. One-way ANOVA with multiple comparisons was used to test for significance of difference in rheobase and input resistance between baseline, drug, and wash conditions.

B1: CODA1025: engineered chimeric LGIC receptor, R101F, L131G in SEQ ID NO: 33 (protein)
chain: MRCSPGGVWLALAASLLHVSLQGEFQRKLYKELVKNYNPLERPVANDSQPLTVYFSLSLLQIMDVDEKNQVLTTNIWLQMSWTDHYLQWNVSEYPGVKTVFFPDGQIWKPDILLYNSADERFDATFHTNVGVNSSGHCQYLPPGIFKSSCPMDLKNFPMDVQTCKLKFGSWSYGGWSLDLQMQEADISGYIPNGEWDLVGIPGKRSERFYECCKEPYPDVTFTVTMRRRMGYYLIQMYIPSLLIVILSWISFWINMDAAPARVGLGITTVLTMTTQSSGSRASLPKVSYVKAIDIWMAVCLLFVFSALLEYAAVNFVSRQHKELLRFRRKRRHHKSPMLNLFQEDEAGEGRFNFSAYGMGPACLQAKDGISVKGANNSNTTNPPPAPSKSPEEMRKLFIQRAKKIDKISRIGFPMAFLIFNMFYWIIYKIVRREDVHNQ
modifications: synthetic sequence of chimeric LGIC
YFP fluorescence quenching using CNL001 (Lenti-X 293T cells; 1 nM CNL001, first column): −18.527%
YFP fluorescence quenching using CNL001 (Lenti-X 293T cells; 1 nM CNL001, second column): −21.577%
YFP fluorescence quenching using TC-5619/Bradanicline (Lenti-X 293T cells; 1 nM brd): −10.61%
YFP fluorescence quenching using TC-5619/Bradanicline (Lenti-X 293T cells; 3 nM brd): 2.63%
YFP fluorescence quenching using Varenicline (Lenti-X 293T cells; 3 nM var, first column): 48.074
YFP fluorescence quenching using Varenicline (Lenti-X 293T cells; 3 nM var, second column): 60.978
YFP fluorescence quenching using CNL001 (Lenti-X 293T cells; 10 nM CNL001, first column): 14.063%
YFP fluorescence quenching using CNL001 (Lenti-X 293T cells; 10 nM CNL001, second column): 49.818%
YFP fluorescence quenching using TC-5619/Bradanicline (Lenti-X 293T cells; 10 nM brd): 17.71%
YFP fluorescence quenching using TC-5619/Bradanicline (Lenti-X 293T cells; 30 nM brd): 68.48%
YFP fluorescence quenching using Facinicline (Lenti-X 293T cells; 30 nM fac): −8.99
YFP fluorescence quenching using Varenicline (Lenti-X 293T cells; 30 nM var, first column): 70.023
YFP fluorescence quenching using Varenicline (Lenti-X 293T cells; 30 nM var, second column): 69.433
YFP fluorescence quenching using CNL001 (Lenti-X 293T cells; 50 nM CNL001, first column): 77.765%
YFP fluorescence quenching using CNL001 (Lenti-X 293T cells; 50 nM CNL001, second column): 79.23%
YFP fluorescence quenching using ABT-126 (Lenti-X 293T cells; 50 nM abt): −11.53%
YFP fluorescence quenching using CNL001 (Lenti-X 293T cells; 100 nM CNL001, first column): 80.544%
YFP fluorescence quenching using CNL001 (Lenti-X 293T cells; 100 nM CNL001, second column): 80.695%
YFP fluorescence quenching using CNL002 (Lenti-X 293T cells; 100 nM CNL002): 12.48%
YFP fluorescence quenching using ABT-126 (Lenti-X 293T cells; 100 nM abt): −7.61%
YFP fluorescence quenching using AZD-0328 (Lenti-X 293T cells; 100 nM azd0328): 6.26%
YFP fluorescence quenching using ABT-126 (Lenti-X 293T cells; 300 nM abt): 6.55%
YFP fluorescence quenching using AZD-0328 (Lenti-X 293T cells; 300 nM azd0328): 37.98%
YFP fluorescence quenching using TC-5619/Bradanicline (Lenti-X 293T cells; 300 nM brd): 75.12%
YFP fluorescence quenching using Facinicline (Lenti-X 293T cells; 300 nM fac): 10.21
YFP fluorescence quenching using Varenicline (Lenti-X 293T cells; 300 nM var, first column): 78.989
YFP fluorescence quenching using Varenicline (Lenti-X 293T cells; 300 nM var, second column): 79.21
YFP fluorescence quenching using Varenicline (Lenti-X 293T cells; 500 nM var, first column): 79.212
YFP fluorescence quenching using Varenicline (Lenti-X 293T cells; 500 nM var, second column): 79.771
YFP fluorescence quenching using CNL001 (Lenti-X 293T cells; 1 uM CNL001, first column): 81.191%
YFP fluorescence quenching using CNL001 (Lenti-X 293T cells; 1 uM CNL001, second column): 82.385%
YFP fluorescence quenching using CNL002 (Lenti-X 293T cells; 1 uM CNL002): 46.04%
YFP fluorescence quenching using ABT-126 (Lenti-X 293T cells; 1 uM abt): 25.08%
YFP fluorescence quenching using TC-6987 (Lenti-X 293T cells; 1 uM tc6987): −13.32
YFP fluorescence quenching using Varenicline (Lenti-X 293T cells; 1 uM var, first column): 79.538
YFP fluorescence quenching using Varenicline (Lenti-X 293T cells; 1 uM var, second column): 80.577
YFP fluorescence quenching using TC-6987 (Lenti-X 293T cells; 10 uM tc6987): 43.71
YFP fluorescence quenching using CNL002 (Lenti-X 293T cells; 30 uM CNL002): 39.82%
YFP fluorescence quenching using AZD-0328 (Lenti-X 293T cells; 30 uM azd0328): 79.31%
YFP fluorescence quenching using Facinicline (Lenti-X 293T cells; 30 uM fac): 78.24
YFP fluorescence quenching using TC-6987 (Lenti-X 293T cells; 500 uM tc6987): 53.98
percent quench of YFP fluorescence, 30 nM TC-6683 (Lenti-X 293T cells; TC-6683 30 nM): −1.645%
percent quench of YFP fluorescence, 300 nM TC-6683 (Lenti-X 293T cells; TC-6683 300 nM): 3.043%
percent quench of YFP fluorescence, 3 uM TC-6683 (Lenti-X 293T cells; TC-6683 3 uM): 0.082%
percent quench of YFP fluorescence, 30 uM TC-6683 (Lenti-X 293T cells; TC-6683 30 uM): 2.449%
percent quench of YFP fluorescence, 100 uM TC-6683 (Lenti-X 293T cells; TC-6683 100 uM): 10.437%
percent quench of YFP fluorescence, 10 uM ach (Lenti-X 293T cells; acetylcholine 10 uM): 12.57%
percent quench of YFP fluorescence, 50 uM ach (Lenti-X 293T cells; acetylcholine 50 uM): −3.46%
percent quench of YFP fluorescence, 100 uM ach (Lenti-X 293T cells; acetylcholine 100 uM): 12.65%
percent quench of YFP fluorescence, 300 uM ach (Lenti-X 293T cells; acetylcholine 300 uM): −6.96%
percent quench of YFP fluorescence, 500 uM ach (Lenti-X 293T cells; acetylcholine 500 uM): −6.77%
percent quench of YFP fluorescence, 1 mM ach (Lenti-X 293T cells; acetylcholine 1 mM): 19.42%
percent quench of YFP fluorescence, 3 mM ach (Lenti-X 293T cells; acetylcholine 3 mM): 65.06%
Rheobase Shift; Rat DRG Neurons, +TC-5619 @ EC90 (rat DRG neurons; +TC-5619 @ EC90): 560 ± 72 pA
Rheobase Shift; Rat DRG Neurons, Baseline (rat DRG neurons; Baseline, no ligand): 140 ± 19 pA

Reference: patent US20240317834A1, “COMPOSITIONS AND METHODS FOR NEUROLOGICAL DISEASES” (CODA BIOTHERAPEUTICS, INC., priority 2020, published 2024)
